B1: TRAF3IP2 (parent)
chain: PRPPSNPPARGTLKTSNLPEELRK
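Also: lentivirally expressed fusions sorted by FACS into six bins by GFP to DsRed ratio, PSI derived from sequencing read proportions per bin multiplied by bin number.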

Variants of: B1
Test: protein stability index of a GFP-peptide fusion (GPS, HEK-293T) (PSI 1-6); higher = more stable
Details: c terminus: a fixed tail appended
Work on PRPPSNPPARGTLKTSKLPEELRK [N17K] yielded a protein stability index of 4.07. Work on PRPPSNPPARGTLKTSFLPEELRK [N17F] yielded a protein stability index of 4.42. Work on PRPPSNPPARGTLKTSELPEELRK [N17E] yielded a protein stability index of 5.13. With PRPPSNPPARGTLKTSHLPEELRK [N17H] the protein stability index was 4.58. In the case of PRPPSNPPARGTLKTSALPEELRK [N17A], the protein stability index is reported as 5.05. PRPPSNPPARGTLKTSGLPEELRK [N17G] gave a protein stability index of 4.82. Variant PRPPSNPPARGTLKTSVLPEELRK [N17V] has a protein stability index of 3.94. With PRPPSNPPARGTLKTSCLPEELRK [N17C] the protein stability index was 4.29. With PRPPSNPPARGTLKTSYLPEELRK [N17Y] the protein stability index was 4.77. PRPPSNPPARGTLKTSSLPEELRK [N17S] showed a protein stability index of 4.91. With PRPPSNPPARGTLKTSTLPEELRK [N17T] the protein stability index was 4.21. Work on PRPPSNPPARGTLKTSMLPEELRK [N17M] yielded a protein stability index of 4.8. Variant PRPPSNPPARGTLTTSNLPEELRK [K14T] has a protein stability index of 5.09. Variant PRPPSNPPARGTLNTSNLPEELRK [K14N] has a protein stability index of 4.97. In the case of PRPPSNPPARGTLLTSNLPEELRK [K14L], the protein stability index is reported as 5.17. For PRPPSNPPARGTLHTSNLPEELRK [K14H], the protein stability index was 5.22. PRPPSNPPARGTLPTSNLPEELRK [K14P] gave a protein stability index of 4.83. Work on PRPPSNPPARGTLQTSNLPEELRK [K14Q] yielded a protein stability index of 5.21. With PRPPSNPPARGTLYTSNLPEELRK [K14Y] the protein stability index was 4.77. With PRPPSNPPARGTLVTSNLPEELRK [K14V] the protein stability index was 5.17. With PRPPSNPPARGTLMTSNLPEELRK [K14M] the protein stability index was 4.94. PRPPSNPPARGTLFTSNLPEELRK [K14F] showed a protein stability index of 4.84. For PRPPSNPPARGTLDTSNLPEELRK [K14D], the protein stability index was 5.37. PRPPSNPPARGTLGTSNLPEELRK [K14G] showed a protein stability index of 4.68. Variant PRPPSNPPARGTLATSNLPEELRK [K14A] has a protein stability index of 5.35. PRPPSNPPARGTLITSNLPEELRK [K14I] gave a protein stability index of 4.82. PRPPSNPPARGTLSTSNLPEELRK [K14S] gave a protein stability index of 5.4. PRPPSNPPARGTLRTSNLPEELRK [K14R] showed a protein stability index of 4.65. PRPPSNPPARGTLCTSNLPEELRK [K14C] gave a protein stability index of 4.76. In the case of PRPPSNPPARGTLWTSNLPEELRK [K14W], the protein stability index is reported as 4.58. In the case of PRPPSNPPARGTLETSNLPEELRK [K14E], the protein stability index is reported as 5.27. PRPPSNPPARGTLKTSNLTEELRK [P19T] showed a protein stability index of 4.14. In the case of PRPPSNPPARGTLKTSNLGEELRK [P19G], the protein stability index is reported as 4.36. Work on PRPPSNPPARGTLKTSNLFEELRK [P19F] yielded a protein stability index of 4.28. PRPPSNPPARGTLKTSNLEEELRK [P19E] gave a protein stability index of 5.1. PRPPSNPPARGTLKTSNLMEELRK [P19M] showed a protein stability index of 4.47. PRPPSNPPARGTLKTSNLNEELRK [P19N] gave a protein stability index of 4.83. With PRPPSNPPARGTLKTSNLHEELRK [P19H] the protein stability index was 3.36. With PRPPSNPPARGTLKTSNLDEELRK [P19D] the protein stability index was 4.89. PRPPSNPPARGTLKTSNLAEELRK [P19A] showed a protein stability index of 4.48. PRPPSNPPARGTLKTSNLCEELRK [P19C] showed a protein stability index of 4.7. With PRPPSNPPARGTLKTSNLLEELRK [P19L] the protein stability index was 4.43. PRPPSNPPARGTLKTSNLSEELRK [P19S] gave a protein stability index of 4.75. PRPPSNPPARGTLKTSNLKEELRK [P19K] gave a protein stability index of 4.59. Variant PRPPSNPPARGTLKTSNLREELRK [P19R] has a protein stability index of 4.14. For PRPPSNPPARGTLKTSNLQEELRK [P19Q], the protein stability index was 4.75. Variant PRPPSNPPARGTLKTSNLVEELRK [P19V] has a protein stability index of 4.09. For PRPPSNPPARGTLKTSNLIEELRK [P19I], the protein stability index was 4. PRPPSNPPDRGTLKTSNLPEELRK [A9D] showed a protein stability index of 5. For PRPPSNPPTRGTLKTSNLPEELRK [A9T], the protein stability index was 5.3. Variant PRPPSNPPGRGTLKTSNLPEELRK [A9G] has a protein stability index of 4.84. PRPPSNPPLRGTLKTSNLPEELRK [A9L] gave a protein stability index of 4.85. In the case of PRPPSNPPYRGTLKTSNLPEELRK [A9Y], the protein stability index is reported as 4.5. PRPPSNPPSRGTLKTSNLPEELRK [A9S] gave a protein stability index of 4.62. With PRPPSNPPIRGTLKTSNLPEELRK [A9I] the protein stability index was 4.65. PRPPSNPPKRGTLKTSNLPEELRK [A9K] showed a protein stability index of 4.44. For PRPPSNPPHRGTLKTSNLPEELRK [A9H], the protein stability index was 4.63. PRPPSNPPNRGTLKTSNLPEELRK [A9N] gave a protein stability index of 4.95. Variant PRPPSNPPFRGTLKTSNLPEELRK [A9F] has a protein stability index of 4.37. PRPPSNPPMRGTLKTSNLPEELRK [A9M] showed a protein stability index of 4.68. In the case of PRPPSNPPERGTLKTSNLPEELRK [A9E], the protein stability index is reported as 5.06. For PRPPSNPPRRGTLKTSNLPEELRK [A9R], the protein stability index was 4.6. Variant PRPPSNPPWRGTLKTSNLPEELRK [A9W] has a protein stability index of 4.47. Variant PRPPSNPPQRGTLKTSNLPEELRK [A9Q] has a protein stability index of 4.7. PRPPSNPPVRGTLKTSNLPEELRK [A9V] gave a protein stability index of 4.31. PRPPSNPPCRGTLKTSNLPEELRK [A9C] showed a protein stability index of 4.31. PRPPSNPPARVTLKTSNLPEELRK [G11V] showed a protein stability index of 4.37. PRPPSNPPARPTLKTSNLPEELRK [G11P] showed a protein stability index of 4.42. PRPPSNPPARRTLKTSNLPEELRK [G11R] showed a protein stability index of 3.85. PRPPSNPPARDTLKTSNLPEELRK [G11D] showed a protein stability index of 4.86. PRPPSNPPARYTLKTSNLPEELRK [G11Y] showed a protein stability index of 4.28. Work on PRPPSNPPARFTLKTSNLPEELRK [G11F] yielded a protein stability index of 3.69. PRPPSNPPARETLKTSNLPEELRK [G11E] showed a protein stability index of 4.96. PRPPSNPPARLTLKTSNLPEELRK [G11L] gave a protein stability index of 3.88. With PRPPSNPPARWTLKTSNLPEELRK [G11W] the protein stability index was 3.54. In the case of PRPPSNPPARATLKTSNLPEELRK [G11A], the protein stability index is reported as 4.73. In the case of PRPPSNPPARCTLKTSNLPEELRK [G11C], the protein stability index is reported as 4.25. For PRPPSNPPARSTLKTSNLPEELRK [G11S], the protein stability index was 4.54. Work on PRPPSNPPARGTLKTSNVPEELRK [L18V] yielded a protein stability index of 5.06. For PRPPSNPPARGTLKTSNNPEELRK [L18N], the protein stability index was 4.71. In the case of PRPPSNPPARGTLKTSNRPEELRK [L18R], the protein stability index is reported as 4.56. In the case of PRPPSNPPARGTLKTSNDPEELRK [L18D], the protein stability index is reported as 4.67. PRPPSNPPARGTLKTSNHPEELRK [L18H] gave a protein stability index of 4.8. In the case of PRPPSNPPARGTLKTSNQPEELRK [L18Q], the protein stability index is reported as 5.08. PRPPSNPPARGTLKTSNWPEELRK [L18W] gave a protein stability index of 4.2. With PRPPSNPPARGTLKTSNAPEELRK [L18A] the protein stability index was 4.92. In the case of PRPPSNPPARGTLKTSNSPEELRK [L18S], the protein stability index is reported as 5.62. Variant PRPPSNPPARGTLKTSNFPEELRK [L18F] has a protein stability index of 4.72. Variant PRPPSNPPARGTLKTSNKPEELRK [L18K] has a protein stability index of 5.26. PRPPSNPPARGTLKTSNMPEELRK [L18M] showed a protein stability index of 4.5. Variant PRPPSNPPARGTLKTSNYPEELRK [L18Y] has a protein stability index of 5.14. For PRPPSNPPARGTLKTSNGPEELRK [L18G], the protein stability index was 4.96. PRPPSNPPARGTLKTSNIPEELRK [L18I] gave a protein stability index of 4.38. PRPPSNPPARGTLKTSNTPEELRK [L18T] gave a protein stability index of 4.96.

Source: the supplement of paper PMC10567573
